Laboratory results published in patent publication US10577618B2, “Class of glyphosate resistance genes” (Dow AgroSciences LLC, priority 2012, dated 2020).
Substitutions are numbered along the chain they refer to. Entries after “also recorded” stand apart in the source; their conditions may differ.

B1: DGT-28v1: Class IV EPSP synthase from Streptomyces sviceus ATCC29083, SEQ ID NO:1, native (protein, listed as Streptomyces sviceus)
chain: MRGMPALSLPGSKSITARALFLAAAADGVTTLVRPLRSDDTEGFAEGLVRLGYRVGRTPDTWQVDGRPQGPAVAEADVYCRDGATTARFLPTLAAAGHGTYRFDASPQMRRRPLLPLSRALRDLGVDLRHEEAEGHHPLTVRAAGVEGGEVTLDAGQSSQYLTALLLLGPLTRQGLRIRVTDLVSAPYVEITLAMMRAFGVEVAREGDVFVVPPGGYRATTYAIEPDASTASYFFAAAALTPGAEVTVPGLGTGALQGDLGFVDVLRRMGAEVSVGADATTVRGTGELRGLTANMRDISDTMPTLAAIAPFASAPVRIEDVANTRVKECDRLEACAENLRRLGVRVATGPDWIEIHPGPATGAQVTSYGDHRIVMSFAVTGLRVPGISFDDPGCVRKTFPGFHEAFAELRRGIGS
B2: DGT-32: Streptomyces Class IV EPSP synthase, GENBANK ZP_04696613, SEQ ID NO:68 (protein)
chain: DRWRVQGRPAGPAATEADVYCRDGATTARFLPTLAAAAASGTYRFDASAQMRRRPLAPLTRALTALGVDLRH
modifications: Streptomyces roseosporus NRRL 15998
B3: DGT-33: Streptomyces Class IV EPSP synthase, GENBANK NC_010572, SEQ ID NO:67 (protein)
chain: B2 chain with Q6E, A10D, T15P, E16D, A35V
modifications: Streptomyces griseus subsp. griseus NBRC 13350
B4: DGT-31: Streptomyces Class IV EPSP synthase, GENBANK YP_004922608.1, SEQ ID NO:145 (protein)
chain: MTVIDIPGSKSVTARALFLAAAADGTTTLLRPLHSDDTEGFTEGLTRLGYAVVREPDRWHIEGRPSGPAAADAEVHCRDGATTARFLPTLAAAAASGTYRFDASAQMRRRPLAPLTEALRTLGVDLRHDGAEGHHPLTIQASGVKGGGLTLDAGESSQYLTALLMLGPLTAEGLRIEVTELVSAPYVEITLAMMRGFGVEVVREGNTFTVPPGGYRATTYAIEPDASTASYFFAAAALTGREVTVPGLGTGALQGDLRFTEVLRRMDADVRTTSDSTTVRSDGRLAGLTVNMRDISDTMPTLAAIAPYASSPVRIEDVANTRVKECDRLEACAQNLRSMGITVRTGPDWIEIHPGTPRPTEIATHGDHRIVMSFAVAGLRTPGMSYDDPGCVRKTFPRFHEEFAAFVERSSAGE
modifications: Streptomyces pratensis ATCC 33331

How the values were obtained:
[1] = tested on: EPSP synthase (DGT enzymes); assay: In vitro kinetic characterization of plant and bacterial DGT enzymes (Pi production, malachite green); type: biochemical; settings: for Km: read-out: KM^PEP, Km for phosphoenolpyruvate; for decrease in catalytic efficiency: relative to DGT-28 v1
Procedure: Recombinant DGT proteins were overexpressed in Rosetta2™ (DE3) cells (Novagen™, Madison, Wis.) from the constructs described above. A single colony was used to inoculate 50 mL starter cultures of LB containing chloramphenicol (25 μg/mL) and kanamycin (50 μg/mL) which were cultivated overnight at 37° C. The overnight cultures were used to inoculate 1 L of LB containing chloramphenicol (25 μg/mL) and kanamycin (50 μg/mL). The cultures were grown at 37° C. to an O.D.600=0.6 then placed in an ice water bath for 10 minutes. Expression of the target proteins was achieved by addition of IPTG to a final concentration of 500 μM.
DGT enzymes were purified to homogeneity in one step via immobilized metal affinity chromatography (IMAC) using a 5 mL HisTrap FF crude column. The column was equilibrated in Buffer A and the sample was loaded in the same buffer. The column was then washed with 10 column volumes of Buffer A followed by elution in a 0-100% Buffer B (50 mM HEPES pH 7.5, 200 mM KCl, 2 mM DTT, 1 mM EDTA, 500 mM imidazole, and 5% glycerol) linear gradient over 25 column volumes. Fractions containing target protein, as judged by SDS-PAGE analysis, were concentrated to 2.5 mL using a Millipore ultracentrifugation device equipped with a 10 kDa molecular weight cut-off (MWCO). The purified DGT enzymes were buffer exchanged using PD-10 columns (GE Healthcare) into 50 mM HEPES pH 7.5, 150 mM KCl, 2 mM DTT, and 5% glycerol and subsequently concentrated ˜1 mL. Samples were typically diluted 1:50 and the UV-visible spectrum was recorded from 240-700 nm on a Cary50™ Bio UV-visible spectrophotometer. A theoretical extinction coefficient was then used to calculate the protein concentration based on the absorbance at 280 nm (ExPASy, Geneva, Switzerland).
Frozen pellets were resuspended in 20-30 mL buffer A (50 mM HEPES pH 7.5, 100 mM KCl, 1 mM EDTA, 5% glycerol, and 1 mM DTT) and 1 tablet of protease inhibitor (Roche Complete). Once the pellet was completely resolubilized 1 mg/mL of lysozyme was added and the sample was mixed at 4° C. for 15-20 minutes. Following the incubation with the lysozyme the sample was transferred to a 50 mL centrifuge tube and placed on ice. The sample was then sonicated for 1 minute intervals followed by 4 minutes of cooling. This step was repeated two more times for a total of three sonication cycles. Cell debris was removed by centrifugation at 16,500 rpm for 45 minutes and the supernatant was loaded into a 50 mL injection loop. The crude lysate was applied to an amylose column, washed for 7 column volumes with buffer A, and eluted in 100% buffer B (Buffer A and 10 mM maltose). Target protein was pooled and concentrated to 2.5 mL using a 30 kDa MWCO centricon. The purified protein was buffer exchanged into 50 mM HEPES pH 7.5, 100 mM KCl, and 5% glycerol using a PD-10 gel filtration column. Protein concentrations were determined via Bradford assay using BSA as a standard. The pure protein was frozen in liquid nitrogen and stored at −80° C.
The enzyme activities of wild-type (WT) and mutant DGTs were measured by inorganic phosphate (Pi) production in a modified procedure described by Lanzetta et al. (1979) Anal. Bioch. 100:95-7. Assays were performed in 96-well plate format in a total of 50 μL on a Spectra-Max 190 plate reader (Molecular Devices, Sunnyvale, Calif.). Typical assays contained 50 mM HEPES pH 7.5, 150 mM KCl, 2 mM DTT, and 1 mM S3P. […] Glyphosate was obtained from Sigma as the free acid and was resuspended in ddH2O. Glyphosate was solubilized by addition of KOH until the mixture was at a neutral pH. Assays were initiated by addition of the DGT enzyme at concentrations that varied between 0.01-1 μM. Reactions were terminated by the addition of 235 μL of a 3:1 mixture of malachite green: ammonium molybdate solution. After complete color development (˜1 minute), the absorbance change at 660 nm was recorded and the amount of Pi formed was calculated from a standard curve. […]

T1 Arabidopsis = assay: Glyphosate tolerance of transformed T1 Arabidopsis, postemergence spray, visual % injury; type: in vivo, Arabidopsis thaliana
Text: Transgenic T1 Arabidopsis plants containing the dgt-28 transgene were sprayed with differing rates of glyphosate. Elevated rates were applied in this study to determine the relative levels of resistance (105, 420, 1,680 or 3,360 g ae/ha). A typical 1× field usage rate of glyphosate is 1120 g ae/ha. The T1 Arabidopsis plants that were used in this study were variable copy number for the dgt-28 transgene. The low copy dgt-28 T1 Arabidopsis plants were self-pollinated and used to produce T2 plants.
The Arabidopsis T1 transformants were first selected from the background of untransformed seed using a glufosinate selection scheme. Three flats or 30,000 seed were analyzed for each T1 construct. The T1 plants selected above were molecularly characterized and the high copy number plants were subsequently transplanted to individual pots and sprayed with various rates of commercial glyphosate as previously described. The response of these plants is presented in terms of % visual injury 2 weeks after treatment (WAT). […] An arithmetic mean and standard deviation is presented for each construct used for Arabidopsis transformation. The range in individual response is also indicated in the last column for each rate and transformation. Wild-type, non-transformed Arabidopsis (c.v. Columbia) served as a glyphosate sensitive control.
T1 plants were sampled and copy number analysis for the dgt-31, dgt-32, and dgt-33 v1 gene were completed. T1 plants were then assigned to various rates of glyphosate so that a range of copies were among each rate. For Arabidopsis, 26.25 g ae/ha glyphosate is an effective dose to distinguish sensitive plants from ones with meaningful levels of resistance. Elevated rates were applied to determine relative levels of resistance (105, 420, 1680, or 3360 g ae/ha).
All glyphosate herbicide applications were made by track sprayer in a 187 L/ha spray volume. Glyphosate used was of the commercial Durango dimethylamine salt formulation (480 g ae/L, Dow AgroSciences, LLC). […]

Molecule	tolerant to glyphosate at concentrations [1] [mM]	Km [1] [µM]	decrease in catalytic efficiency [1] [fold]	tolerance to glyphosate (T1 Arabidopsis)
B1	> 80	91.6		
B2		140	100	significant tolerance; also recorded: robust tolerance
B3		114	100	significant tolerance; also recorded: robust tolerance
B4				slight herbicide tolerance
